Reference: paper PMC3935622

Molecular target: S. Typhimurium CueP C172S mutant (S. Typhimurium)
Assay: SEC

## S. Typhimurium CueP C172S mutant (natural protein)
  stoichiometry N: 4
